Reference: patent US12280159B2, “Therapeutic protein-based nanoparticles for treating cancer” (THE REGENTS OF THE UNIVERSITY OF MICHIGAN, priority 2020, dated 2025)

Tests used:
[1] = system: draining lymph nodes (F4/80+ macrophages, B220+ B cells, CD11c+ DCs); parameters: species or system C57BL/6 mice; conditions: mouse, in vivo, sc
Method: OVA pNPs delivery to lymph nodes. Next, the pNPs targeting of the draining lymph nodes using AlexaFluor 647-labeled pNPs was evaluated. OVA pNPs of varying PEG/OVA ratio (10, 30, 50%) and size (200 nm, 500 nm) were injected subcutaneously at the tail base of C57BL/6 mice (10 μg OVA/100 μL dose). The inguinal draining lymph nodes were harvested 48 hours after injection. Single-cell suspensions from the draining lymph nodes were prepared and pNPs uptake among the different populations of antigen-presenting cells were analyzed (dendritic cells, macrophages and B cells) using flow cytometry by comparing the MFI values of the cells. […] In the past, many different particle sizes have been studied with respect to their lymphatic drainage. It has been shown that particles exceeding 500 nm can be trapped at the injection site. Nanoparticles smaller than 10 nm, or soluble antigen, diffuse into the lymphatic system easily, but their retention time in the lymph nodes is too short to provide sustained antigen delivery. […] For smaller pNPs sizes, improved uptake is observed for pNP with lower PEG/OVA ratio.

[2] = system: B16F10-OVA melanoma; experiment: Therapeutic efficacy in murine B16F10-OVA melanoma model; format: in vivo, C57BL/6 mice; conditions: treated days 7 and 14 with CpG
Method: Therapeutic efficacy of pNPs in a model of melanoma. Encouraged by the fact that OVA pNPs with 10% PEG/OVA ratio result in increased OT-I CD8+ cell proliferation in vitro, improved uptake by APCs (both in vitro and in vivo), and enhanced humoral immune response in vivo, a murine model of B16F10-OVA melanoma was employed to evaluate the therapeutic efficacy of pNPs with a PEG/OVA ratio of 10% compared to solute OVA. Tumor-bearing mice were treated with 10% PEG/OVA pNPs or solute OVA (10 μg OVA/100 μL dose), co-administered with CpG (15 μg/dose). Following the regimen shown in FIG. 9A, C57BL/6 mice (10 mice/treatment group) were inoculated with 1×10^5 B16F10-OVA cells in the SC flank on day 0. Treatments with either 10% PEG/OVA pNPs or solute OVA were initiated on day 7 after tumor inoculation. A second treatment was given on day 14. Mice were euthanized after their tumors reached 15 mm in any dimension. […] More than 50% of mice treated with solute OVA were euthanized due to large tumor burden on day 20, and 100% of the mice were euthanized on day 21.

B1: ovalbumin (protein, UniProt P01012 2-386, looked up)
Ovalbumin: GSIGAASMEFCFDVFKELKVHHANENIFYCPIAIMSALAMVYLGAKDSTRTQINKVVRFDKLPGFGDSIEAQCGTSVNVHSSLRDILNQITKPNDVYSFSLASRLYAEERYPILPEYLQCVKELYRGGLEPINFQTAADQARELINSWVESQTNGIIRNVLQPSSVDSQTAMVLVNAIVFKGLWEKAFKDEDTQAMPFRVTEQESKPVQMMYQIGLFRVASMASEKMKILELPFASGTMSMLVLLPDEVSGLEQLESIINFEKLTEWTSSNVMEERKIKVYLPRMKMEEKYNLTSVLMAMGITDVFSSSANLSGISSAESLKISQAVHAAHAEINEAGREVVGSAEAGVDAASVSEEFRADHPFLFCIKHIATNAVLFFGRCVSP
notes: soluble ovalbumin antigen used as control
[1]
  MFI of lymph node cells / delivery to draining lymph nodes: not delivered to the lymph nodes efficiently
[2]; day 20
  mice euthanized due to large tumor burden: More than 50%
[2]; day 21
  mice euthanized: 100%
[2]
  animal survival: slightly better survival
